Test results as given in patent US20130035289A1, “PHARMACEUTICAL COMPOSITION FOR TREATMENT OF THROMBOSIS-RELATED DISEASES COMPRISING A FRAGMENT OF PROLACTIN (PRL)-GROWTH HORMONE (GH)-PLACENTAL LACTOGEN (PL)-FAMILY PROTEIN” (UNIVERSITE DE LIEGE, priority 2010, published 2013).

Experiments:
[1] = target: T1, PAI-1 (Homo sapiens, UniProt P05121); test: Inhibition of PAI-1 anti-proteolytic activity, uPA/plasminogen chromogenic (colorimetric) assay; format: biochemical; settings: for PAI-1 activity in vitro (chromogenic assay): yes/no, table title: Peptide fragments inhibiting PAI-1
T1 construct: gift of Pr; P. Declerck
T1 sequence (P05121 24-402): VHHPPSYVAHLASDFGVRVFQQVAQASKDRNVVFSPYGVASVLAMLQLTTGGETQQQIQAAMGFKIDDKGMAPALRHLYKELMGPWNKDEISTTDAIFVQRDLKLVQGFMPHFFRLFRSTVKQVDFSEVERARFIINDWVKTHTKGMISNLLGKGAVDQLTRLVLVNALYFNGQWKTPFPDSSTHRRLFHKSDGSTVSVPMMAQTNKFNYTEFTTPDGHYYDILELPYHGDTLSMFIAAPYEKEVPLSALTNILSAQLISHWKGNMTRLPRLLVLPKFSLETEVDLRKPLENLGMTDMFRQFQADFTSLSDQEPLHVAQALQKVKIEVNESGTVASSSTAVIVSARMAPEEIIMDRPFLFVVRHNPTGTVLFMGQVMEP
Procedure: The main physiological function of PAI-1 is to inhibit uPA and tPA proteolytic activity. […] A chromogenic substrate for plasmin (Spectrozyme PL: 0.5 mM. American Diagnostica INC) in PBS was added to the mixture in 96-well microtitration plates and kept at room temperature. The release of free p-nitro-aniline from the chromogenic substrate was measured spectrophotometrically. The activity of plasmin was determined as the absorbance at 405 nm.

[2] = target: T1, PAI-1; test: In vitro clot lysis assay in pooled normal human plasma with added PAI-1 and tPA; format: biochemical; settings: peptides 25 μM, human plasma; for ablility to induce clot lysis: yes/no, added PAI-1, tPA
Procedure: Clot lysis was performed as follows: pooled normal plasma were used in citrated tube. Recombinant wild type PAI-1 was incubated in the presence or in the absence of 16K hPRL (3 μM), 14K hGH (3 μM) or different peptides (25 μM) for 10 min at 37° C., before to be added to diluted plasma in tris tween buffer (75 μl of plasma in 200 μl of 10 mM TRIS pH 7.5, 0.01% tween 20), followed by a second incubation for 10 min at 37° C. tPA was added to each tube at the end to reach a final volume of […]. Aliquots from each tube (80 μl) were added in duplicate to 96 wells, each containing 20 μl CaCl2 to give the following final concentration per well of 10 mM. Clot formation and dissolution were monitored at RT measuring turbidity at 405 nm in 5 min intervals.

[3] = target: T1, PAI-1; test: Casein zymography of plasmin generation by uPA in presence of PAI-1; format: biochemical
Procedure: (a) Proteolytic activity of uPA on plasminogen (Plg) in different conditions was determined by colorimetric assay (absorbance at 405 nm) as described in Methods. […] The data represent the means±SD of duplicate samples and experiment was repeated at least three times. (b) Casein zymography showing Plg and plasmin (Pln) generation by uPA in the presence of PAI-1 alone or in combination with 14K GH or 22K GH.
For this test casein (1 mg/ml) was incorporated in 10% SDS polyacrylamide gels. Aliquots of in vitro reaction including recombinant proteins were mixed with loading buffer (10% SDS, 4% Sucrose, 0.25M Tris-Hcl pH6-8, 0.1% Bromophenol blue). After electrophoresis, SDS was removed from the gel by two washes (30 min each) of 100 mM glycine, 2.5% Triton buffer (pH 8.0) stained with 0.1% coomassie brilliant bleu, and destained in 20% methanol/10% acetic acid.

[4] = target: T2, PAI-1 (Mus musculus, UniProt P22777); test: Murine thromboembolism model (tPA/thromboplastin); format: in vivo; settings: POPRL 7-12 10 mg/kg i.v. 5 min before t-PA/thromboplastin; control 50; p=0.3
T2 construct: from tissue; host or cells: BalbC Njrj mice, in vivo (blood)
T2 sequence (P22777 23-402): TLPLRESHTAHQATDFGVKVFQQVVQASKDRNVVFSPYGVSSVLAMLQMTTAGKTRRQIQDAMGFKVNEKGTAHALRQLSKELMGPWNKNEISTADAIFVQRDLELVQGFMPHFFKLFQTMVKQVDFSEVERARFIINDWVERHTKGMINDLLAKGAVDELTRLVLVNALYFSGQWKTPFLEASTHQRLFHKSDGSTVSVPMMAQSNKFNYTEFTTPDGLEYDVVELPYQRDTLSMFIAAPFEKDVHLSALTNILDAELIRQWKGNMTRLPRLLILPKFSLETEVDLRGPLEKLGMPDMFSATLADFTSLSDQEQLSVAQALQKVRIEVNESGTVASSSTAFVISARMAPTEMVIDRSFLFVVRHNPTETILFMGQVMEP
Procedure: BalbC Njrj Mice were used and anesthetised with ketamine/xylazine throughout the whole experiment. Recombinant 16K PRL and adenovirus vectors 16K-Ad and Null-Ad were produced as described above. The animal experiment protocol used was approved by the Institutional Ethics Committee of the University of Liege.
Recombinant 16K PRL (1 mg/kg) or POPRL 7-12 (10 mg/kg) were administrated via the vein to BalbC Njrj mice of approximately 15-18 g. Five minutes after the injection, a suboptimal concentration of t-PA (0.1 mg/kg) was injected immediately followed by i.v. injection of thromboplastin (3.3 μg/kg) to evoke thromboembolism. Mice were evaluated after 15 min for survival. For experiment with adenovirus vectors, mice were injected into the tail vein with 10^9 pfu of 16K hPRL adenovirus (16K-Ad) and their corresponding control (Null-Ad) 5 days before the injection a suboptimal concentration of t-PA (0.1 mg/kg) injected immediately followed by i.v. injection of thromboplastin (3.3 μg/kg).
The fisher test was used to determine the significance of the differences in the mortality assays.

| Substance | PAI-1 activity in vitro (chromogenic assay) [1] | ablility to induce clot lysis [2] | inhibition of PAI-1 function to inhibit uPA and tPA proteolytic activity ([1]; uPA, bovine plasminogen, PAI-1, absorbance 405 nm) | inhibition of plasmin (Pln) generation in the presence of PAI-1 [3] | clot lysis in the presence of added PAI-1 [2] | mortality [4] [%] |
| --- | --- | --- | --- | --- | --- | --- |
| LLRISL [POGH 1-6] | yes | yes | – | – | – | – |
| RISLLL [POGH 3-8] | yes | yes | – | – | – | – |
| 22K GH: the full fragment (full-length) growth hormone [reference compound] | – | – | did not show any inhibition | no effect | – | – |
| IVSILR [POPRL 5-10] | yes | yes | – | – | – | – |
| SLLLIQ [POGH 5-10] | yes | yes | – | – | as effective as the tilted peptide of GH: POGH | – |
| IQSWLE [POGH 9-14] | yes | yes | – | – | – | – |
| LSQILSSLIQSWLE [POGHmut, reference compound] | no | no | – | – | – | – |
| SILRSW [POPRL 7-12] | yes | yes | – | – | – | 30 |
| FLSLIV [POPRL 1-6] | yes | yes | – | – | – | – |
| LLRISLLLIQSWLE [POGH] | yes | yes | – | – | – | – |
